For the assay, the target named is fluorescein-labeled NS1 (89–237) (H3N2) (influenza A virus H3N2). Briefly: […].
fluorescein-labeled NS1 (89–237) (H3N2) (influenza A virus H3N2), sequence (P03495 89-237 limits assumed): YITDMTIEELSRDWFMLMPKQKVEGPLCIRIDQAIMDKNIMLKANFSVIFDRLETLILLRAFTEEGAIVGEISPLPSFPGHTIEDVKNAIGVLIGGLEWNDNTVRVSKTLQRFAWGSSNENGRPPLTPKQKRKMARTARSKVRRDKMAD

human eIF4E, sequence (P06730 whole entry): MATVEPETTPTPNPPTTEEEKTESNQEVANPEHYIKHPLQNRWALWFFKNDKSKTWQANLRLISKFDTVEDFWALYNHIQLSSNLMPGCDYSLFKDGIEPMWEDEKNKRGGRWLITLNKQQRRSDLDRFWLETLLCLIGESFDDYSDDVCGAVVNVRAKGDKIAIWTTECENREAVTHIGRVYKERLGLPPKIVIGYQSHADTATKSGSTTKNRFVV

As to “eIF4G1 (88–653) (from UniProt Q04637 88-653) (domain or fragment)”, the Kd (usually the concentration at which binding is half-saturated) is 264 nM.

In turn, “human eIF4E (from UniProt P06730 1-217) (natural protein)” registered a Kd of 177 nM.

Values taken from article PMC10164398.
